# Experimental data from PMC9592559 (Structure(London, England:1993), 2022).
# Target: the molecule itself
# Experiment: SEC; analytical gel filtration of TOP2B (45–444) in the presence and absence of AMPPNP
protein,measurement,value
"human TOP2B ATPase domain (45–444) (domain or fragment, UniProt Q02880-2 45-444, looked up, Cloned by LIC into the pET His6 MBP Asn10 TEV LIC vector (1C), Addgene plasmid 29654; The models hold residues 46–429 (7QFO), 47–422 (7QFN) and 45–422 (7ZBG); not shown: His6, N-terminal, cleaved; MBP, N-terminal, cleaved) SVERVYQKKTQLEHILLRPDTYIGSVEPLTQFMWVYDEDVGMNCREVTFVPGLYKIFDEILVNAADNKQRDKNMTCIKVSIDPESNIISIWNNGKGIPVVEHKVEKVYVPALIFGQLLTSSNYDDDEKKVTGGRNGYGAKLCNIFSTKFTVETACKEYKHSFKQTWMNNMMKTSEAKIKHFDGEDYTCITFQPDLSKFKMEKLDKDIVALMTRRAYDLAGSCRGVKVMFNGKKLPVNGFRSYVDLYVKDKLDETGVALKVIHELANERWDVCLTLSEKGFQQISFVNSIATTKGGRHVDYVVDQVVGKLIEVVKKKNKAGVSVKPFQVKNHIWVFINCLIENPTFDSQTKENMTLQPKSFGSKCQLSEKFFKAASNCGIVESILNWVKFKAQTQLNKKCS",stoichiometry N,2
